# Molecular target: T1, HLA-A*11:01 (human)
# T1 construct: whole, on cells; MHC class I on a monoallelic cell line
# Assay: HLA-I IP and targeted MS with hipMHC standards, A*11:01 monoallelic C1R cells (FIG. 12B)
row,Binder,binding result
1,VVGAGGVGK (also called KRAS G12 wild type 9-mer),binds
2,VVVGAGGVGK (also called KRAS G12 wild type 10-mer),binds

# Molecular target: T2, HLA-A*02:01 (human)
# T2 construct: whole, on cells; MHC class I on a monoallelic cell line (HMy2.C1R)
# Assay: HLA-I IP and untargeted MS of monoallelic cells
row,Binder,binding result
1,IMSDSNYVV,binds

# Molecular target: T3, HLA-C*07:02 (human)
# T3 construct: whole, on cells; MHC class I on a monoallelic cell line
# Assay: HLA-I IP (W6/32) and targeted MS of monoallelic HMy2.C1R cells expressing the polyantigen cassette
row,Binder,binding result
1,KRNSLALSL,binds

# Molecular target: T4, HLA-C*06:02 (human)
# T4 construct: whole, on cells; MHC class I on a monoallelic cell line
# Assay: as above
row,Binder,binding result
1,GRNSFEVHV,binds
2,KRNSLALSL,binds

# Molecular target: T5, HLA-A*03:01 (human)
# T5 construct: whole, on cells; MHC class I on a monoallelic cell line
# Assay: as above
row,Binder,binding result
1,KITDFGRAK,binds
2,ASGAFGTVYK,binds
3,VVGAGDVGK,binds
4,VVGASGVGK,binds
5,VVVGASGVGK,binds
6,VVVGAVGVGK,binds
7,VVVGARGVGK,binds
8,VVVGAAGVGK,binds
9,VVVGADGVGK,binds

# Molecular target: T6, HLA-B*07:02 (human)
# T6 construct: whole, on cells; MHC class I on a monoallelic cell line
# Assay: as above
row,Binder,binding result
1,CPHRPILQA,binds
2,MPFGSLLDY,binds
3,SPNGTIQNIL,binds
4,KPIIIGCH,binds
5,GARGVGKSA,binds
6,RSKRNSLAL,binds
7,RPIPIKYKAM,binds
8,GARGVGKSAL,binds

# Molecular target: T7, HLA-A*01:01 (human)
# T7 construct: whole, on cells; MHC class I on a monoallelic cell line
# Assay: as above
row,Binder,binding result
1,ILDTAGKEEY,binds
2,ILDTAGREEY,binds
3,YTDVSNMSH,binds
4,DTAGREEY,binds
5,YTDVSNMSHLA,binds
6,LDTAGKEEY,binds

# Molecular target: T8, HLA-C*05:01 (human)
# T8 construct: whole, on cells; MHC class I on a monoallelic cell line
# Assay: as above
row,Binder,binding result
1,CNTTARAFAVV,binds
2,GRNSFEVCV,binds
3,STDVGFCTL,binds
4,IGDFGLATM,binds
5,GADGVGKSAL,binds

# Molecular target: T9, HLA-C*07:01 (human)
# T9 construct: whole, on cells; MHC class I on a monoallelic cell line
# Assay: as above
row,Binder,binding result
1,KRNSLALSL,binds
2,EKSRWSGSHQF,binds

# Molecular target: T1, HLA-A*11:01
# Assay: as above
row,Binder,binding result
1,STRDPLSEITK,binds
2,ASGAFGTVYK,binds
3,LASGAFGTVYK,binds
4,VVGAGDVGK,binds
5,VVGACGVGK,binds
6,VVGAGCVGK,binds
7,VVGASGVGK,binds
8,VVGAAGVGK,binds
9,VVGADGVGK,binds
10,ASGAFGTVY,binds
11,SCMGGMNQR,binds
12,VVVGASGVGK,binds
13,VVVGAGCVGK,binds
14,VVVGAVGVGK,binds
15,VVVGARGVGK,binds
16,VVVGAAGVGK,binds
17,VVVGADGVGK,binds

# Molecular target: T10, HLA-B*35:01 (human)
# T10 construct: whole, on cells; MHC class I on a monoallelic cell line
# Assay: as above
row,Binder,binding result
1,MPFGSLLDY,binds
2,IIIGGHAY,binds
3,IIIGHHAY,binds
4,VKPIIIGHHAY,binds
5,PIIIGHHAY,binds

# Molecular target: T11, HLA-B*08:01 (human)
# T11 construct: whole, on cells; MHC class I on a monoallelic cell line
# Assay: as above
row,Binder,binding result
1,MIKRSKRNSL,binds
2,SKRNSLAL,binds
3,DGVGKSAL,binds
4,KMRRKMSP,binds
5,FGLARYIM,binds
6,FMKQMNDAL,binds
7,ERCPHRPIL,binds
8,WVKPIIIGC,binds
9,FKKIKVLAS,binds
10,FGRAKLLGA,binds
11,AGREEYSAM,binds

# Source: patent publication US20240277770A1 (Genentech, published 2024)
